Data on 7 molecules can be found in patent publication US20250243292A1 (published 2025).

B4: PP6373 (antibody, human IgG1, kappa, V domains shown)
VH: EVKFEESGGGLVQPGGSIKLSCAASGVTFSEAWMDWVRQSPEKGLEWVAEIRDKPNSYVTYYAESVKGRFTISRDDSKSRVYLQMNNLRTEDTGIYYCTGAMDYWGQGTSVTVSS
VL: DIVMTQTPLSLSVTIGQPASISCKSSQSLLYSNGKTYLNWLQQRPGQSPKRLIYQVSKLDPGIPDRFSGSGSETDFTLKISRVEAEDLGIYYCMQGSSLPWTFGGGTKLEIKR
notes: Biotinylated in tissue and cell staining; also called H4069 + L4071; P3050.ComF1.2H1

Experiment [1] has as its target T1, 3B6.
T1 construct: Monoclonal antibody; also called anti-CD24 monoclonal antibody 3B6
Description: peptide inhibition ELISA, 3B6 on NO-CD24. The procedure:
(§1) To determine the antigenic epitope recognized by 3B6 and affinity matured clone PP6373, we synthesized overlapping peptides covering the mature CD24 amino acid sequence (Seq ID No 42), and pre-incubated them with 3B6 antibody prior to adding 3B6 to plates pre-coated with NO-CD24 protein (CD24Fc pretreated sequentially with N-glycosidase, NanA and O-glycosidase).
(In general: An ELISA detects its analyte on a solid surface through an enzyme-linked reagent.)

Experiment [2] concerns the target B4. Description: peptide inhibition ELISA, PP6373 on SA-N-CD24, peptides titrated.
In experiment [3] the target is B4. Briefly: peptide inhibition ELISA, peptides titrated over a large dose range. On the procedure:
as §1

Experiment [4] has as its target B4. Description: inhibition assay with truncated peptides.
Experiment [5] deals with T2, fully glycosylated CD24 (recombinant, from CHO cells) (N-glycans, sialic acid and O-glycans kept (untreated)).
T2 construct: Recombinant CD24 made in CHO cells, untreated; also called fully modified (N-glycan+sialic acid+O-glycan modifications) CD24; CD24 without deglycosylation
T2 chain: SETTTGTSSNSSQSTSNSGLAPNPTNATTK
Description: ELISA titration on coated Fc removed CD24, untreated. The procedure: FIG. 8. Quantitative comparison of binding between different CD24 glycoforms and anti-CD24 antibodies: parental PP6229 vs affinity matured PP6373. Fc removed CD24 were coated onto ELISA plate, and were then treated with either buffer (CD24), NanA (SA-) or NanA+N-glycanse (SA-N-) prior adding given doses of […] (left panel) or PP6373 (right panel). The maximum concentration tested was 7812.50 ng/ml with titration factor of 5× to a minimum concentration of 0.02 ng/ml.
Therefore, this clone is chosen for further study. The heavy chain sequence for PP6373 is listed in SEQ ID NO: 6 and the light chain sequence is listed on SEQ ID No.16. Compared with the parental sequence, the heavy chain has three mutations in CDR2, while the light chain has one mutation in CDR3 of the light chain. […] It is also of note that PP6373 gained the ability to bind to CD24 even without deglycosylation at 1/1000 level of that to SA-N-CD24. However, since CHO cells is known to have incomplete glycosylation, it is likely that the binding reflect the higher sensitivity of the antibody to detect minor glycoform in the recombinant CD24 prepared from CHO cells.

B1: SEQ ID NO 44 (peptide)
peptide: GTSSNSSQST
notes: Synthetic overlapping peptide of mature CD24; by order probably peptide 2; also called one of the five overlapping CD24 peptides
Turning to B1, the binding result in experiment [1] and in experiment [2] was “no binding” each time.

B2: peptide 4 (peptide)
peptide: SNSGLAPNPT
notes: Synthetic overlapping peptide of mature CD24
For the molecule B2, the binding result in experiment [3] is “binds”.

B3: SNSGLAPN (SEQ ID NO: 48) (peptide)
peptide: SNSGLAPN
notes: C-terminally truncated form of peptide 4; also called truncated peptide 4
On to B3, for which the binding result in experiment [4] is “binds”.

Take B4: in experiment [5], the “binding relative to that to SA-N-CD24” value worked out at 0.001 ratio.

B5: SEQ ID NO 43 (peptide)
peptide: SETTTGTSSN
notes: Synthetic overlapping peptide of mature CD24; by order probably peptide 1; also called one of the five overlapping CD24 peptides
In the case of B5, the binding result in experiment [1] and in experiment [2] was “no binding” throughout.

B6: SEQ ID NO 47 (peptide)
peptide: APNPTNATTK
notes: Synthetic overlapping peptide of mature CD24; by order probably peptide 5; also called one of the five overlapping CD24 peptides
For B6, the binding result in experiment [1] and in experiment [2] was “no binding” throughout.

B7: SEQ ID NO 45 (peptide)
peptide: SSQSTSNSGL
notes: Synthetic overlapping peptide of mature CD24; by order probably peptide 3; also called one of the five overlapping CD24 peptides
In the case of B7, the binding result in experiment [1] and in experiment [2] was “no binding” in each case.
